The subject of the test is mutant form of α-Gal A expressed in HEK-293 cells. Put plainly: HEK assay (GLP HEK / Migalastat Amenability Assay): α-Gal A activity in lysates of transiently transfected HEK-293 cells incubated with or without 10 μM migalastat. The format is cell-based, human. Conditions: for Absolute increase (% WT): 10 μM migalastat versus baseline; for Relative increase: 10 μM migalastat α-Gal A activity relative to baseline; for 10 μM migalastat α-Gal A activity (% WT): 5 days; for 10 μM migalastat α-Gal A activity (% WT) / Baseline α-Gal A activity (% WT): percentage of baseline wild-type α-Gal A activity; for 10 μM migalastat α-Gal A activity (% WT) / Baseline α-Gal A activity (% WT) / Baseline α-Gal A activity / 10 μM migalastat α-Gal A activity: mean ± SEM; for Baseline α-Gal A activity (% WT): absence of migalastat; for Baseline α-Gal A activity / 10 μM migalastat α-Gal A activity: lysates of HEK-293 cells transfected with the mutant form; for Baseline α-Gal A activity: incubated 5 days in the absence of migalastat; for 10 μM migalastat α-Gal A activity: incubated 5 days with 10 μM migalastat. Summed up: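 HEK-293 cells transiently transfected with mutant α-Gal A and incubated with or without 10 μM migalastat; lysate activity given as nmol free 4-MU released per mg protein per hour. Values are mean±SEM.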

From patent publication US11833164B2, “Methods of treating Fabry disease in patients having a mutation in the GLA gene” (Amicus Therapeutics, Inc., priority 2019, dated 2023) come the findings set out here.

Positions count from the first letter of the chain named. In names and notes the source's numbering stands.

B1: Y173C (protein)
chain: MQLRNPELHLGCALALRFLALVSWDIPGARALDNGLARTPTMGWLHWERFMCNLDCQEEPDSCISEKLFMEMAELMVSEGWKDAGYEYLCIDDCWMAPQRDSEGRLQADPQRFPHGIRQLANYVHSKGLKLGIYADVGNKTCAGFPGSFGYYDIDAQTFADWGVDLLKFDGCCCDSLENLADGYKHMSLALNRTGRSIVYSCEWPLYMWPFQKPNYTEIRQYCNHWRNFADIDDSWKSIKSILDWTSFNQERIVDVAGPGGWNDPDMLVIGNFGLSWNQQVTQMALWAIMAAPLFMSNDLRHISPQAKALLQDKDVIAINQDPLGKQGYQLRQGDNFEVWERPLSGLAWAVAMINRQEIGGPRSYTIAVASLGKGVACNPACFITQLLPVKRKLGFYEWTSRLRSHINPTGTVLLQLENTMQMSLKDLL
Regarding B1, the “Absolute increase (% WT)” value was 29.3 % WT, the Relative increase came out at 1.6, the “10 μM migalastat α-Gal A activity (% WT)” value was 80.5 ± 3.3 % WT and the “Baseline α-Gal A activity (% WT)” value is listed as 51.1 ± 3.6 % WT. The “Baseline α-Gal A activity” value was found to be 17669 ± 1240 nmol/mg/h and the “10 μM migalastat α-Gal A activity” value was found to be 27924 ± 1225 nmol/mg/h.

B2: Y173H (protein)
chain: B1 chain with C173H
As to B2, the “Absolute increase (% WT)” value is reported as 18.3 % WT, the Relative increase is reported as 1.3, the “10 μM migalastat α-Gal A activity (% WT)” value is reported as 80.2 ± 4.6 % WT and the “Baseline α-Gal A activity (% WT)” value was 61.9 ± 3.4 % WT. Also, the “Baseline α-Gal A activity” value was 21234 ± 879 nmol/mg/h and the “10 μM migalastat α-Gal A activity” value is 27455 ± 1147 nmol/mg/h.

B3: S176R (protein)
chain: B1 chain with C173Y, S176R
Consider B3, for which the “Absolute increase (% WT)” value amounted to 22.0 % WT, the Relative increase was determined as 1.3, the “10 μM migalastat α-Gal A activity (% WT)” value is listed as 88.3 ± 3.3 % WT and the “Baseline α-Gal A activity (% WT)” value is listed as 66.3 ± 2 % WT. Moreover, the “Baseline α-Gal A activity” value is 22675 ± 886 nmol/mg/h and the “10 μM migalastat α-Gal A activity” value amounted to 30159 ± 1226 nmol/mg/h.

B4: L177F (protein)
chain: B1 chain with C173Y, L177F
Consider B4, for which the “Absolute increase (% WT)” value came to 38.7 % WT, the Relative increase is 1.9, the “10 μM migalastat α-Gal A activity (% WT)” value turned out to be 84 ± 2.3 % WT and the “Baseline α-Gal A activity (% WT)” value was found to be 45.3 ± 2.1 % WT. The “Baseline α-Gal A activity” value was determined as 15605 ± 911 nmol/mg/h and the “10 μM migalastat α-Gal A activity” value worked out at 28893 ± 1210 nmol/mg/h.

B5: D175V (protein)
chain: B1 chain with C173Y, D175V
As for B5, the “Absolute increase (% WT)” value was found to be 19.7 % WT, the Relative increase is 1.6, the “10 μM migalastat α-Gal A activity (% WT)” value is reported as 53.5 ± 2.5 % WT and the “Baseline α-Gal A activity (% WT)” value is on record as 33.7 ± 2.2 % WT. Moreover, the “Baseline α-Gal A activity” value amounted to 10430 ± 915 nmol/mg/h and the “10 μM migalastat α-Gal A activity” value was determined as 16384 ± 1039 nmol/mg/h.

B6: Y173F (protein)
chain: B1 chain with C173F
With B6, the “Absolute increase (% WT)” value was 21.2 % WT, the Relative increase is reported as 1.3, the “10 μM migalastat α-Gal A activity (% WT)” value came out at 97.7 ± 4.7 % WT and the “Baseline α-Gal A activity (% WT)” value was determined as 76.5 ± 4.2 % WT. Besides, the “Baseline α-Gal A activity” value stood at 26479 ± 1523 nmol/mg/h and the “10 μM migalastat α-Gal A activity” value came to 33158 ± 657 nmol/mg/h.

B7: Y173S (protein)
chain: B1 chain with C173S
As for B7, the “Absolute increase (% WT)” value was determined as 14.8 % WT, the Relative increase came to 1.2, the “10 μM migalastat α-Gal A activity (% WT)” value came to 76.2 ± 3.3 % WT and the “Baseline α-Gal A activity (% WT)” value was 61.4 ± 3.3 % WT. The “Baseline α-Gal A activity” value worked out at 21751 ± 1625 nmol/mg/h and the “10 μM migalastat α-Gal A activity” value worked out at 26270 ± 994 nmol/mg/h.

B8: S176C (protein)
chain: B1 chain with C173Y, S176C
B8: the “Absolute increase (% WT)” value came to 16.2 % WT, the Relative increase was 1.2, the “10 μM migalastat α-Gal A activity (% WT)” value came out at 79.5 ± 5.1 % WT and the “Baseline α-Gal A activity (% WT)” value stood at 63.3 ± 3.9 % WT. Besides, the “Baseline α-Gal A activity” value was 20097 ± 1126 nmol/mg/h and the “10 μM migalastat α-Gal A activity” value came to 24777 ± 960 nmol/mg/h.

B9: D175Y (protein)
chain: B1 chain with C173Y, D175Y
B9: the “Absolute increase (% WT)” value came out at 22.9 % WT, the Relative increase worked out at 1.8, the “10 μM migalastat α-Gal A activity (% WT)” value is given as 52.3 ± 1.9 % WT and the “Baseline α-Gal A activity (% WT)” value is given as 29.4 ± 2.4 % WT. In addition, the “Baseline α-Gal A activity” value is 8991 ± 838 nmol/mg/h and the “10 μM migalastat α-Gal A activity” value is 15923 ± 778 nmol/mg/h.

B10: L177M (protein)
chain: B1 chain with C173Y, L177M
As to B10, the “Absolute increase (% WT)” value came out at 27.9 % WT, the Relative increase is recorded as 1.4, the “10 μM migalastat α-Gal A activity (% WT)” value stood at 97.4 ± 2.7 % WT and the “Baseline α-Gal A activity (% WT)” value is listed as 69.5 ± 2.3 % WT. For the same molecule, the “Baseline α-Gal A activity” value is 23730 ± 946 nmol/mg/h and the “10 μM migalastat α-Gal A activity” value worked out at 33080 ± 829 nmol/mg/h.

B11: L177S (protein)
chain: B1 chain with C173Y, L177S
As to B11, the “Absolute increase (% WT)” value came out at 35.9 % WT, the Relative increase was 1.7, the “10 μM migalastat α-Gal A activity (% WT)” value amounted to 87.2 ± 4.5 % WT and the “Baseline α-Gal A activity (% WT)” value is 51.4 ± 1.7 % WT. The “Baseline α-Gal A activity” value worked out at 17445 ± 533 nmol/mg/h and the “10 μM migalastat α-Gal A activity” value was determined as 29868 ± 1909 nmol/mg/h.

B12: D175H (protein)
chain: B1 chain with C173Y, D175H
Take B12: the “Absolute increase (% WT)” value came to 26.4 % WT, the Relative increase was found to be 1.4, the “10 μM migalastat α-Gal A activity (% WT)” value is on record as 87.1 ± 3.9 % WT and the “Baseline α-Gal A activity (% WT)” value stood at 60.7 ± 3.4 % WT. Further, the “Baseline α-Gal A activity” value is 18529 ± 1174 nmol/mg/h and the “10 μM migalastat α-Gal A activity” value came out at 26201 ± 994 nmol/mg/h.

B13: D175G (protein)
chain: B1 chain with C173Y, D175G
Take B13: the “Absolute increase (% WT)” value amounted to 18.1 % WT, the Relative increase is reported as 1.2, the “10 μM migalastat α-Gal A activity (% WT)” value was 92.8 ± 6.2 % WT and the “Baseline α-Gal A activity (% WT)” value was 74.7 ± 6.7 % WT. The “Baseline α-Gal A activity” value was found to be 23065 ± 2315 nmol/mg/h and the “10 μM migalastat α-Gal A activity” value was determined as 28273 ± 1968 nmol/mg/h.
